Assay results: the DeepSol protein solubility set

test: soluble on expression in E. coli; label from the status in PepcDB or PDB records

Q: For “MTKTSKASGLSWFFCDLDGTLLRYQNNQHLIEPTTKRAVAQLVESGANFVVATGRKPSDVRNIYKELGIEQASPYLIANNGAVVWDLKRNSYLNKQTLSLSDFDLIDHINQTLNQLNHEYGCILYGLNDQVYFYHIHAPDSQAFKQYFAFYEGEFVQNQYLEIDGLKTEYNLVKAIWFFKEVHQQKAVIAQHFTNQERLVITSAHSFELVPLNVSKGHAINLIKQQVKITDNQIMVLGDSYNDLPMFQHGVVKVTNHLAPDNLKQLATRVYELPASLFVGQALNDYFKFD”, which “soluble on expression in E. coli” value is on record?
A: not soluble

Q: For “MIATYNTNVGDVLMLITANDKGEKVNFERKGKVARVFIEETGATVAWNIFEAKSLLANLSGNGQVVLSSDDIETLNKELGKSGFSDVLVHDAQPKFVVAEIVEMEDHPDSDHLHICKVNVGFADPVQIVCGAPNAALGLKTVAALPGAMMPNGSLIFPGALRGVQSYGMLCSARELELPNAPEVRGIIELSSDLSAGKAFDSETMWQALEHHHHHH”, which “soluble on expression in E. coli” value is on record?
A: soluble

Q: Which “soluble on expression in E. coli” value does the source give for “MNFRTGQPSDAAALAAISIEVWLGTYMRKGVSAFFAEYALNEFTSTKMASLLKDPNEHVIVSENEGGIDAFIRLGQGRAAPVSGCSTLEIATLYVQPRHHRRGLGRALLEQGLAYARQASAPSVWLTTNSENAPAIAFYLEQGFEKVGTTHFNIGDQ” here?
A: not soluble

Q: For “MNRSNQDITQPTAIIAVVGVGAEQGIGAAVCRRFAQEKFKVYVAGRTLNKVEKVAAAIHRQGGQAVAYVLDAENEQQLQTLFDHLNDQPEALAAVIHNVGGNIPSIFLQSSLKFFSQMWRSTFLSSVLVAQRSLSIFQKQQQGTLIFTGASASLRGKPFFAAFSMGKSALRSYALNLAELYRSQNIHVAHVMVDGMVDGDRVNKALWGLGRLARLTRGTGGLNIDAIAENYWMLYQQNVDLWTHELDLRPYQEKF”, which “soluble on expression in E. coli” value is on record?
A: not soluble

Q: With “YQNYGIMAAIDHINALKDLVKRFPKFADLPKIYGGGSYGGYLSLLIAKIAPWYVDGVIDNSGVCLPFLACILGREMNQGEFYFEGSGYRLYCFVYKYWNRNMNSSYYFGDENYLIRAVLNSNHLQIQSNLNKNTIFVSYHSIQDMGAPVQNKIELYKCYQELGYDATLHLIKDEN” as the sequence, how does the “soluble on expression in E. coli” value read?
A: not soluble

Q: Which “soluble on expression in E. coli” value does the source give for “MGSDKIHHHHHHMLPETMKAVVLTAHGGLDKLVYRDDVPVPVCRAGEVLLDVTACGLNNTDVWVREGAYGTDDDPQAVSTWRRGRSTLSFPRIQGADIVGRVIAVGHGVSDARVGERVIVDASIYNRDDDSLADIDYIGHGRDGGYAEYTAVPAQSAHRIDSACSDAELATFWCAYHTGEQMIERAAVKSGETVLITGASGGVGSAIVQLCRARGAVPYAVVSKGKEEAVRELGAQGVMLRDSEDFAAAVERMTGGRPVDVVADLVGGALFGKLLNVLRPEGRYTTAGAIAGPVVQLDLRTMYLKQLQLNGSSQGTRGAFKRVLDYIQAGTIRPVLAATYPLSKFHEAQTQFMAKRFVGNIVVVPDRHYNGTADRT” here?
A: not soluble

Q: With “MGSDKIHHHHHHLRTNTVKVALVGCGRIAGHHARSIVATDGVQLAAVCDLAEDKALAYSNEFGVPSYTDYRRMLAEHPEISVVAVITPSGMHSEHGLEMMERFGKHIILEKPTMMRPEQLVHAWGVADRLNLSIFPVFQNRHNKAVTRVRQALAAGELGEIRIMSVRVRWCRPQRYYDLAPWRGTFSHDGGALTNQGIHHVDLLRHLGGEVDQVSATMRTLGADIEVEDTVVATMRYRSQAVGVLEVTTAARPDDFEASISIVGEKGLAQIGGIAVNELQVFTPDPAACAANSEDFKSFEGNGAVYGFGHSQMYRDIAAHFHQGKAYPVSREDCLGTLKLLHAFYRSDEAAGGWVDVDSPEQSTRLGRPDDAISNLYRTPLHG” as the sequence, how does the “soluble on expression in E. coli” value read?
A: not soluble

Q: For “SAELQEVQITEEKPLLPGQTPEAAKEAELAARILLDQGQTHSVETPYVSVTFTVYGTPKPKRPAILTYHDVGLNYKSCFQPLFQFEDMQEIIQNFVRVHVDAPGMEEGAPVFPLGYQYPSLDQLADMIPCVLQYLNFSTIIGVGVGAGAYILARYALNHPDTVEGLVLINIDPNAKGWMDWAAHKLTGLTSSIPEMILGHLFSQEELSGNSELIQKYRNIITHAPNLDNIELYWNSYNNRRDLNFERGGDITLRCPVMLVVECNSKLDPTQTSFLKMADSGGQPQLTQPGKLTEAFKYFLQGMGYMASSCMTRLSRSRTASLTSAASVDGNRSRSRTLSQSSESGTLSSGPPGHTMEVSC”, which “soluble on expression in E. coli” value is on record?
A: not soluble

Q: For “MPVFRRHASQNCASIPPMMLFKRPDTETLYFALVNKDPAYEGVAYVCVTSTKIFCRFTCTARKPKIENCRFRETITECLEAGFRPCKRCKPMLSYGTPDGTVTALLTALENEPARRWREEDVVALGHDPSTVRRSFKRRFGMSFLEIARLRRVGDAAESLASGEAVIGAQIDAGYESGSGFRSAINQLFGTSPAAMKGRGFLKGDWIDTPIGPMLAVADDHALHLLEFADRPALPAELKRLKARTGADMVLGRTAVTGQIAAELAAYFAGRSGSFETRLAGHGTPFERDVWRNLREIPAGEIVSYSSLATAMERPTAVRAVARANGANQLAIVVPCHRVLGADGSLTGYGGGLWRKKWLIEHERRMARGQMLGMPLASLEHHHHHH”, which “soluble on expression in E. coli” value is on record?
A: not soluble

Q: Which “soluble on expression in E. coli” value does the source give for “MSTMSSPIYIQIHNQIKQAIEAGRWAVGDRIPSERELATQFDVSRMTLRQAIQTLVDEGILERRVGAGTFVANQKVQEKMSGVTSFTDLMLAQGKVPSSKTISYHVTSPSLSESEKLALGANEQVLRMERIRYGDDVPICFEVATVPERLVKQFTKDEITSSLYRTLEEKASLVPGKAQQTVSAMSASERIAEYLSVRRGDALLRLRQISYLQTGEPFEYVRTQYVGNRFEFYLEK” here?
A: not soluble

Q: For “MSLKVAVVGLGDISHVHIHAIQNSTKAQLVAVCDENEKLSQQVPHVNYYNDLQTMIDSETLDCVHICLPHYLHVSATTTCVENGINVLQEKPLAVNAKEGLELVKLQRKYPNIKIGICFQNRYNATFQALQEIVESKTYGEVIGVKGLVTWFRPESYYTDKPWRGQMATAGGGVLINQSIHTLDLIQLLCGKIASIKGTVSQLLDYDIEVEDTASAHIKFENKANGMFFATNANFGNSNVELQIIFENEKFTIKDNILTRFNEAGEKIKIAEDEKMTGNKTYYGPSHGKLINAFYDCINNDSNNYVHPKDALTSIAMIDAIQKSSESLKTVQFDSEGHHHHHH”, which “soluble on expression in E. coli” value is on record?
A: soluble

Q: For “MGSDKIHHHHHHMIIGNCLILKDFSSEPFWGAVEIENGTIKRVLQGEVKVDLDLSGKLVMPALFNTHTHAPMTLLRGVAEDLSFEEWLFSKVLPIEDRLTEKMAYYGTILAQMEMARHGIAGFVDMYFHEEWIAKAVRDFGMRALLTRGLVDSNGDDGGRLEENLKLYNEWNGFEGRIFVGFGPHSPYLCSEEYLKRVFDTAKSLNAPVTIHLYETSKEEYDLEDILNIGLKEVKTIAAHCVHLPERYFGVLKDIPFFVSHNPASNLKLGNGIAPVQRMIEHGMKVTLGTDGAASNNSLNLFFEMRLASLLQKAQNPRNLDVNTCLKMVTYDGAQAMGFKSGKIEEGWNADLVVIDLDLPEMFPVQNIKNHLVHAFSGEVFATMVAGKWIYFDGEYPTIDSEEVKRELARIEKELYSS”, which “soluble on expression in E. coli” value is on record?
A: soluble

Q: For “MDSAREVSDGRLTVEGFSVASRAFADKWKIHNQSFPPWSWVPLINRTLLVSKKEEGYLSLEKIIILSSLEEEIPEDESLNVATDCLEKEETVDHTILVPTMENEAHYYDFHIVYSASYKVPVLYFRGYCSGGEPLALDVIKKDVPSCSVSLLLESKWTFITQEEHPYLNRPWFKLHPCGTEDWIKLLSQSSSSSGCQMPIVLYLVSWFSVVGQVVGLRIPLEMLN”, which “soluble on expression in E. coli” value is on record?
A: soluble

Q: For “MQEEVNQKTVALSIRTTKLTGKVLAAALGKVVRALQKHHRKALTPQGRQSVKKLMNHYGGKSAMPYVGAPKDFDRIAKEFHVDYAFHKVSPGHYLLFFKANQADAITAAFQKYSAKVLNKEQDKASILGQLRKFTEQIRTQAKEKQRTREAVKDGR”, which “soluble on expression in E. coli” value is on record?
A: not soluble

Q: For “SAAGVDGDTAAAAAAGGGVVVVFDFDRTIIEWDSDDWVITKLGASDAFRRLRPTMRWNPLMDRMMVELHAQGRSADDIRDCLKSAPLDAHVLSAITTASALGCDLRVASDANAFFIETVLEHHGVLGCFSEISTNPARVDGNGRLRISPFHDPDDSSPHGCSLCPENMCKGKIIERIQATANGKRHFIYIGDGRGDYCPSLKLGEGDYVMPKEKYPLWNLISSNKQLLKAEVHPWNNGEELEQTLLKLVNKLITPPAQPSQFEYKCDMSNPVSTEVGQALRVPH”, which “soluble on expression in E. coli” value is on record?
A: soluble
